Measurements taken from patent US20180057581A1 (MorphoSys, published 2018).

T1: human cell-surface M-CSF on stably transfected CHO cells (human, UniProt P09603 33-554)
T1 construct: also called csM-CSF
T1 sequence: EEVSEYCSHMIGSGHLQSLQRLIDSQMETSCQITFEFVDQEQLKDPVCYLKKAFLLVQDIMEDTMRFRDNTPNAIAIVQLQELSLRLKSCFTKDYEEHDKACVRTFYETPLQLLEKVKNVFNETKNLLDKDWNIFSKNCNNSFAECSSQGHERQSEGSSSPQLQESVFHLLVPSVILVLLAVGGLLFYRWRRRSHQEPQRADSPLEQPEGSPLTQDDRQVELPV

T2: Recombinant human sgM-CSF (human, UniProt P09603 33-255)
T2 construct: also called human secreted glycosylated M-CSF; Human M-CSF
T2 sequence: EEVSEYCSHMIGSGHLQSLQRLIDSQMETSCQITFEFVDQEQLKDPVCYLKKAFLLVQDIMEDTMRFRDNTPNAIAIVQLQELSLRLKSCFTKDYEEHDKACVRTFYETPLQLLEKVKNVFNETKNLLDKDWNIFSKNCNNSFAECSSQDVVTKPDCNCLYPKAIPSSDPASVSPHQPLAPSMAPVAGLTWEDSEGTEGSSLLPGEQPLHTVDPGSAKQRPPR

T3: Recombinant cynomolgus monkey sgM-CSF (cynomolgus (Macaca fascicularis), UniProt P09603 33-255 (human entry), limits assumed)
T3 construct: used also where only 'cynomolgus M-CSF' is printed (ELISA result, SET); also called cynomolgus sgM-CSF; cyno sgM-CSF
T3 chain: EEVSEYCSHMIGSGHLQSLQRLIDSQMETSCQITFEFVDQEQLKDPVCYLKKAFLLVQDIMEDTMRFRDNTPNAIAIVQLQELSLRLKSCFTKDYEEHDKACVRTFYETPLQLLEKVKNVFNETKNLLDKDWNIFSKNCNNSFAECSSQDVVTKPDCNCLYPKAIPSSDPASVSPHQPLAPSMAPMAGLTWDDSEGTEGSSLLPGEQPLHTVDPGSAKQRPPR


What was measured:
[1] = molecular target: T1, human cell-surface M-CSF on stably …; test: FACS, CHO cells stably transfected with M-CSF (n = 3)
[2] = molecular target: T2, Recombinant human sgM-CSF; test: MSD receptor binding inhibition: 12.5 pM human sgM-CSF preincubated with antibody, binding to coated human CSF1-R-Fc
Method: (§1) Complexes were then transferred to 384 well MSD plates coated with 2 μg/ml of the corresponding receptor. Plates were then washed and incubated with the streptavidin/ECL conjugate for 2 h with shaking at room temperature. 35 μl MSD read buffer T with surfactant was then added per well and subsequently measured using MSD Sector Imager 6000.

[3] = molecular target: T3, Recombinant cynomolgus monkey sgM-CSF; test: MSD receptor binding inhibition: 12.5 pM cynomolgus sgM-CSF preincubated with antibody, binding to coated human CSF1-R-Fc
Method: as §1

[4] = molecular target: T3, Recombinant cynomolgus monkey sgM-CSF; test: cell-based or functional assay
[5] = molecular target: T2, Recombinant human sgM-CSF; test: cell-based or functional assay

| Binder | EC50 [1] [nM] | IC50 [2] [nM] | IC50 [3] [nM] | IC50, inhibition of M-NFS-60 proliferation induced by recombinant cynomolgus M-CSF (9.5 pM) [4] [pM] | IC50, inhibition of M-NFS-60 proliferation induced by recombinant human M-CSF (9.5 pM) [5] [pM] |
| --- | --- | --- | --- | --- | --- |
| HeRX1-10G1, IgG1 (antibody, V domains shown, tested as IgG1) VH: QVQLQESGPGLVKPSQTLSLTCTVSDYSITSDYAWNWIRQFPGKGLEWMGYISYSGSTSYNPSLKSRITISRDTSKNQFSLQLNSVTAADTAVYYCASFDYAHAMDYWGQGTTVTVSS VL: DIVLTQSPAFLSVTPGEKVTFTCQASQSIGTSIHWYQQKTDQAPKLLIKYASESISGIPSRFSGSGSGTDFTLTISSVEAEDAADYYCQQINSWPTTFGGGTKLEIKR | 12.6 | 0.0265 | 0.0276 | 4.1 | 3.6 |
| Romaine, IgG1_D265A (antibody, V domains shown, tested as IgG1 with D265A in the Fc (EU index); Parental antibody of Satine, Servane) VH: EVQLVESGGGLVKPGGSLRLSCAASGFTFSIYAMSWVRQAPGKGLEWVGRIKSNADGGTTEYAAPVKGRFTISRDDSKNTLYLQMNSLKTEDTAVYYCARMRYYSDLYFDPWGQGTLVTVSS VL: DIELTQPPSVSVSPGQTASITCSGDAIGSKYVHWYQQKPGQAPVLVISKDNKRPSGIPERFSGSNSGNTATLTISGTQAEDEADYYCQTATVSSYWWVFGGGTKLTVLG | 16.4 | 0.0091 | 0.0091 | 8.1 | 8.4 |
| Satine, IgG1_D265A (antibody, V domains shown, tested as IgG1 with D265A in the Fc (EU index)) VH: EVQLVESGGGLVKPGGSLRLSCAASGFTFSIYAMSWVRQAPGKGLEWVGRIKSNADGGTTEYAAPVKGRFTISRDDSKNTLYLQMNSLKTEDTAVYYCARMRYYSDLYFDPWGQGTLVTVSS VL: SYELTQPPSVSVSPGQTASITCSGDKLGQKYVSWYQQKPGQSPVLVISQDRKRPSGIPERFSGSNSGNTATLTISGTQAEDEADYYCQTWTHLQWVFGGGTKLTVLG | 11.3 | 0.0151 | 0.0135 | 5.4 | 5.3 |
| Servane, IgG1_D265A (antibody, V domains shown, tested as IgG1 with D265A in the Fc (EU index)) VH: EVQLVESGGGLVKPGGSLRLSCAASGFTFSTYAISWVRQAPGKGLEWVGFIKSKHNSGTTEYAAPVKGRFTISRDDSKNTLYLQMNSLKTEDTAVYYCARMRYYSDLYFDPWGQGTLVTVSS VL: SYELTQPPSVSVSPGQTASITCSGDKLGQKYVSWYQQKPGQSPVLVISQDRKRPSGIPERFSGSNSGNTATLTISGTQAEDEADYYCQTWTHLQWVFGGGTKLTVLG | 21.3 | 0.0313 | 0.0118 | 13.4 | 11.8 |
| Blanche, IgG1_D265A (antibody, V domains shown, tested as IgG1 with D265A in the Fc (EU index); Parental antibody of Caline, Camille, Celine) VH: QVQLQQSGPGLVKPSQTLSLTCAISGDSVSSNSAAWNWIRQSPSRGLEWLGRTYYRSKWKHEYAMSVKSRITINPDTSKNQFSLQLNSVTPEDTAVYYCARDRYYYSAFDYWGQGTLVTVSS VL: DIALTQPASVSGSPGQSITISCTGTSSDVGGYNSVSWYQQHPGKAPKLMIYAVSNRPSGVSNRFSGSKSGNTASLTISGLQAEDEADYYCASYDERFTRVFGGGTKLTVLG | 7.5 | 0.0062 | 0.0066 | 3.3 | 2.9 |
| Caline, IgG1_D265A (antibody, V domains shown, tested as IgG1 with D265A in the Fc (EU index)) VH: QVQLQQSGPGLVKPSQTLSLTCAISGDSVSSNSAAWNWIRQSPSRGLEWLGRTYYRSKWKHEYAMSVKSRITINPDTSKNQFSLQLNSVTPEDTAVYYCARDRYYYSAFDYWGQGTLVTVSS VL: QSALTQPASVSGSPGQSITISCTGTSSDVGGYNSVSWYQQHPGKAPKLMIYAVSNRPSGVSNRFSGSKSGNTASLTISGLQAEDEADYYCASYDERFTRVFGGGTKLTVLG | 9.8 | 0.0061 | 0.0063 | 4.3 | 3.1 |
| Maelle, IgG1_D265A (antibody, V domains shown, tested as IgG1 with D265A in the Fc (EU index)) VH: QVQLQQSGPGLVKPSQTLSLTCAISGESVSTSSAAWNWIRQSPSRGLEWLGRTYYRSKWKKEYAQSVKSRITINPDTSKNQFSLQLNSVTPEDTAVYYCARDRYYYSAFDYWGQGTLVTVSS VL: QSALTQPASVSGSPGQSITISCTGTSSDVGGYNSVSWYQQHPGKAPKLIIYAVSNRPSGVSNRFSGSKSGNTASLTISGLQAEDEADYYCASYDERFTRVFGGGTKLTVLG | 10.2 | 0.0053 | 0.0064 | 2.3 | 2.7 |
| Laurine, IgG1_D265A (antibody, V domains shown, tested as IgG1 with D265A in the Fc (EU index); Parental antibody of Madeleine, Maelle, Meriem) VH: QVQLQQSGPGLVKPSQTLSLTCAISGDSVSSNSAAWNWIRQSPSRGLEWLGRTYYRSKWKKEYAQSVKSRITINPDTSKNQFSLQLNSVTPEDTAVYYCARDRYYYSAFDYWGQGTLVTVSS VL: DIALTQPASVSGSPGQSITISCTGTSSDVGGYNSVSWYQQHPGKAPKLMIYAVSNRPSGVSNRFSGSKSGNTASLTISGLQAEDEADYYCASYDERFTRVFGGGTKLTVLG | 11.2 | 0.0049 | 0.0043 | 2.8 | 2.6 |
| Meriem, IgG1_D265A (antibody, V domains shown, tested as IgG1 with D265A in the Fc (EU index)) VH: QVQLQQSGPGLVKPSQTLSLTCAISGDSVSTSSAAWNWIRQSPSRGLEWLGRTYYRSKWKKEYAQSVKSRITINPDTSKNQFSLQLNSVTPEDTAVYYCARDRYYYSAFDYWGQGTLVTVSS VL: QSALTQPASVSGSPGQSITISCTGTSSDVGGYNSVSWYQQHPGKAPKLIIYAVSNRPSGVSNRFSGSKSGNTASLTISGLQAEDEADYYCASYDERFTRVFGGGTKLTVLG | 12.3 | 0.007 | 0.0073 | 2.8 | 3.1 |

The next lines start with the values.

| EC50 [1] [nM] | IC50 [2] [nM] | IC50 [3] [nM] | IC50, inhibition of M-NFS-60 proliferation induced by recombinant cynomolgus M-CSF (9.5 pM) [4] [pM] | IC50, inhibition of M-NFS-60 proliferation induced by recombinant human M-CSF (9.5 pM) [5] [pM] | Binder |
| --- | --- | --- | --- | --- | --- |
| 8.9 | 0.028 | 0.018 | 3.5 | 3 | HeRX1-10G1, IgG1_D265A (antibody, V domains shown, Prior art antibody; tested as IgG1 with D265A in the Fc (EU index)) VH: QVQLQESGPGLVKPSQTLSLTCTVSDYSITSDYAWNWIRQFPGKGLEWMGYISYSGSTSYNPSLKSRITISRDTSKNQFSLQLNSVTAADTAVYYCASFDYAHAMDYWGQGTTVTVSS VL: DIVLTQSPAFLSVTPGEKVTFTCQASQSIGTSIHWYQQKTDQAPKLLIKYASESISGIPSRFSGSGSGTDFTLTISSVEAEDAADYYCQQINSWPTTFGGGTKLEIKR |
| 9.7 | 0.0047 | 0.0069 | 3 | 2.7 | Celine, IgG1_D265A (antibody, V domains shown, tested as IgG1 with D265A in the Fc (EU index)) VH: QVQLQQSGPGLVKPSQTLSLTCAISGDSVSTSSAAWNWIRQSPSRGLEWLGRTYYRSKWKHEYAVSVKSRITINPDTSKNQFSLQLNSVTPEDTAVYYCARDRYYYSAFDYWGQGTLVTVSS VL: QSALTQPASVSGSPGQSITISCTGTSSDVGGYNSVSWYQQHPGKAPKLIIYAVSNRPSGVSNRFSGSKSGNTASLTISGLQAEDEADYYCASYDERFTRVFGGGTKLTVLG |
| 6.4 | 0.0056 | 0.0056 | 2.8 | 3 | Madeleine, IgG1_D265A (antibody, V domains shown, tested as IgG1 with D265A in the Fc (EU index)) VH: QVQLQQSGPGLVKPSQTLSLTCAISGDSVSSNSAAWNWIRQSPSRGLEWLGRTYYRSKWKKEYAQSVKSRITINPDTSKNQFSLQLNSVTPEDTAVYYCARDRYYYSAFDYWGQGTLVTVSS VL: QSALTQPASVSGSPGQSITISCTGTSSDVGGYNSVSWYQQHPGKAPKLMIYAVSNRPSGVSNRFSGSKSGNTASLTISGLQAEDEADYYCASYDERFTRVFGGGTKLTVLG |
| 6.1 | 0.0044 | 0.0059 | 2.6 | 2.3 | Camille, IgG1_D265A (antibody, V domains shown, tested as IgG1 with D265A in the Fc (EU index)) VH: QVQLQQSGPGLVKPSQTLSLTCAISGESVSTSSAAWNWIRQSPSRGLEWLGRTYYRSKWKHEYAVSVKSRITINPDTSKNQFSLQLNSVTPEDTAVYYCARDRYYYSAFDYWGQGTLVTVSS VL: QSALTQPASVSGSPGQSITISCTGTSSDVGGYNSVSWYQQHPGKAPKLLIYAVSNRPSGVSNRFSGSKSGNTASLTISGLQAEDEADYYCASYDERFTRVFGGGTKLTVLG |
